Measured values taken from PMC3479092, “Tsetse Salivary Gland Proteins 1 and 2 Are High Affinity Nucleic Acid Binding Proteins with Residual Nuclease Activity”.

T1: Tsal1 (Glossina morsitans morsitans, UniProt D3TS87 23-399)
T1 sequence: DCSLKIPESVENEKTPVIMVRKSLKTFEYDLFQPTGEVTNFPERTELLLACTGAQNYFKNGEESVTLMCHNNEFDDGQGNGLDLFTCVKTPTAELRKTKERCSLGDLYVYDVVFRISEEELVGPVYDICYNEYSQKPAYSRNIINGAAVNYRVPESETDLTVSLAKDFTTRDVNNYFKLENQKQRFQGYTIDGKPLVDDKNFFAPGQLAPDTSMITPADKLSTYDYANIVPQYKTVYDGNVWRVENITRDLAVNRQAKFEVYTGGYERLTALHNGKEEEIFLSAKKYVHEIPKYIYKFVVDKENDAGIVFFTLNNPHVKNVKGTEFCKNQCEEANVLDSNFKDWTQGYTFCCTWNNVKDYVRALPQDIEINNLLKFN


Assays:
[1] = biological target: T1, Tsal1; test: SPR; details: SPR (BIAcore), 50 mM sodium acetate pH 4.0, 150 mM NaCl, 3.5 mM EDTA, 0.005% Tween-20, 30 ul/min, Langmuir 1:1 fit; temperature not stated
[2] = biological target: T1, Tsal1; test: SPR; text: 1.03 nM; ka 1.0E+06, kd 1.0E-03; SPR (BIAcore), 50 mM sodium acetate pH 4.0, 150 mM NaCl, 3.5 mM EDTA, 0.005% Tween-20, 30 ul/min, Langmuir 1:1 fit; temperature not stated; details: protein: recombinant; tags: pelB leader (pET22b), His tag implied by Ni-NTA; blunt

Molecule	Kd [1]	Kd [2]
dsDNA 161 bp	0.45 nM	–
dsRNA 121 bp	2.8 nM	–
dsDNA 25bp polyA/T (dsDNA) DNA 1: AAAAAAAAAAAAAAAAAAAAAAAAA DNA 2: TTTTTTTTTTTTTTTTTTTTTTTTT	–	1 nM
